Biological target: Tat13-Strep-Tactin (HIV-1 | Streptomyces avidinii)
Assay: SDS-PAGE of tetramers after heating

## Tat13-Strep-Tactin (designed binder)
  stoichiometry N: 4
